The Kd is the concentration at which binding is half-saturated.

Series [1] addresses T1, SSB_BA (Bacillus anthracis, UniProt Q81JI3 1-172).
T1 sequence: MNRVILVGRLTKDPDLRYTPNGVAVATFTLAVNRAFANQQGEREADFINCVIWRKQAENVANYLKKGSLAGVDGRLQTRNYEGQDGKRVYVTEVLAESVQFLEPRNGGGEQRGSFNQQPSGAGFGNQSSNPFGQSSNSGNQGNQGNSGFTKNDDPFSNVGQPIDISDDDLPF
As to the kind of experiment: fluorescence anisotropy; […]) or 1 nM ([…]; FRET at 25 C; pH not given. To be noted: protein: recombinant; tags: none stated (pET29b); label: 5'-fluorescein. In general terms: Fluorescence polarisation rises when a labelled molecule tumbles more slowly, as on binding a larger partner.

The target in the next series is SSB_EC (Escherichia coli, UniProt P0AGE0 2-178). Description: FRET titration; 25 C, 40 nM DNA (200 nM in Results text); high FRET peak at 0.44 uM, (SSB)35 mode at >=1.1 uM; Anisotropy: buffer B (composition not in material), 25 mM KCl, 5 mM Mg2+, 25 C, 0.1 nM (Results) or 1 nM (Methods) Fl-(dT)20; temperature series 20-37 C with 25 mM NaCl and glycerol; salt series 0-200/250 mM NaCl at 25 C; FRET at 25 C; pH not given. The note with it: chain copies: 4; label: 5'-Cy5; 3'-Cy3.
Chain of SSB_EC (P0AGE0 2-178): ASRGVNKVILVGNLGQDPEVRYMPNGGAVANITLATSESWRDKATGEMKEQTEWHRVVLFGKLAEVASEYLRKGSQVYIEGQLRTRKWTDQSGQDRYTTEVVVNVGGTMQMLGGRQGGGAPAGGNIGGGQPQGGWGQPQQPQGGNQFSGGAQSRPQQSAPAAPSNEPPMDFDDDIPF

The target of series [2] is T1, SSB_BA. As to the kind of experiment: FRET titration; […]) or 1 nM ([…]; FRET at 25 C; pH not given. To be noted: protein: recombinant; tags: none stated (pET29b); label: 5'-Cy5; 3'-Cy3.

Values joined by “and” are separate entries in the source; they are usually repeats but may differ in a detail not shown here. Equal values may be shown once.

B1: Fl-(dT)20 (ssDNA)
DNA: TTTTTTTTTTTTTTTTTTTT
On to B1, for which, in the series with SSB_BA [1], the Kd was 1 nM and 1.2 nM.

B2: Cy5-(dT)70-Cy3 (ssDNA)
DNA: TTTTTTTTTTTTTTTTTTTTTTTTTTTTTTTTTTTTTTTTTTTTTTTTTTTTTTTTTTTTTTTTTTTTTT
Turning to B2, the binding result in the series with SSB_EC and with SSB_BA [2] was “binds” throughout.
